Molecular target: protein-base BG505 trimer (BG505 DS-SOSIP-2G-3Mut-RnS7Mut) (HIV-1 (BG505)) (UniProt Q2N0S6)
Experiment: SPR; 2G12 antibody immobilised on a CM5 chip (about 2,000 RU), HIV trimer loaded onto it; sCD4 injected at five concentrations (30-500 nM), single cycle, 50 uL/min; 10 mM HEPES pH 7.4, 150 mM NaCl, 3 mM EDTA, 0.05% P-20; Biacore T-200

Substance “soluble construct of CD4 containing the first two domains (sCD4) (domain or fragment)” has a Kd of 1200 nM.

Source: article PMC10404741
